{
  "source": "IntAct's records for PubMed 29892012",
  "parents": {"B1": {"name": "E3 ubiquitin-protein ligase LNX (Homo sapiens), Q8TBB1 (parent)", "chain": "MNQPESANDPEPLCAVCGQAHSLEENHFYSYPEEVDDDLICHICLQALLDPLDTPCGHTYCTLCLTNFLVEKDFCPMDRKPLVLQHCKKSSILVNKLLNKLLVTCPFREHCTQVLQRCDLEHHFQTSCKGASHYGLTKDRKRRSQDGCPDGCASLTATAPSPEVSAAATISLMTDEPGLDNPAYVSSAEDGQPAISPVDSGRSNRTRARPFERSTIRSRSFKKINRALSVLRRTKSGSAVANHADQGRENSENTTAPEVFPRLYHLIPDGEITSIKINRVDPSESLSIRLVGGSETPLVHIIIQHIYRDGVIARDGRLLPGDIILKVNGMDISNVPHNYAVRLLRQPCQVLWLTVMREQKFRSRNNGQAPDAYRPRDDSFHVILNKSSPEEQLGIKLVRKVDEPGVFIFNVLDGGVAYRHGQLEENDRVLAINGHDLRYGSPESAAHLIQASERRVHLVVSRQVRQRSPDIFQEAGWNSNGSWSPGPGERSNTPKPLHPTITCHEKVVNIQKDPGESLGMTVAGGASHREWDLPIYVISVEPGGVISRDGRIKTGDILLNVDGVELTEVSRSEAVALLKRTSSSIVLKALEVKEYEPQEDCSSPAALDSNHNMAPPSDWSPSWVMWLELPRCLYNCKDIVLRRNTAGSLGFCIVGGYEEYNGNKPFFIKSIVEGTPAYNDGRIRCGDILLAVNGRSTSGMIHACLARLLKELKGRITLTIVSWPGTFL", "partner": "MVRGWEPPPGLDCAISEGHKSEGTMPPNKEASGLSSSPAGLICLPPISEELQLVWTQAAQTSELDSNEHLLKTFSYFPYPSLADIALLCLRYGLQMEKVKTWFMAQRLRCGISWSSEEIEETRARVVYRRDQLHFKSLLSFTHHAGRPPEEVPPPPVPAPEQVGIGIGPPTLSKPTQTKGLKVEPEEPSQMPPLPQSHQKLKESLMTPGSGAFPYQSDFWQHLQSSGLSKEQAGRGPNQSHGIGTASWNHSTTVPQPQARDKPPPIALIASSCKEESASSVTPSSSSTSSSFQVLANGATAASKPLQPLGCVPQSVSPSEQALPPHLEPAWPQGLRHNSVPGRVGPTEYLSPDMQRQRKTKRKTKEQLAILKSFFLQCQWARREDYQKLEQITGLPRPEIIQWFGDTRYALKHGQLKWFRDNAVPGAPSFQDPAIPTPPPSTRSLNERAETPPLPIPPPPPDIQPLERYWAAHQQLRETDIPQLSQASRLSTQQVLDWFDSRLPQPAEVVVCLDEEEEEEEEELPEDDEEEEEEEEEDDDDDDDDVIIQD"}, "B2": {"name": "CGG triplet repeat-binding protein 1 (Homo sapiens), Q9UFW8 (parent)", "chain": "MERFVVTAPPARNRSKTALYVTPLDRVTEFGGELHEDGGKLFCTSCNVVLNHVRKSAISDHLKSKTHTKRKAEFEEQNVRKKQRPLTASLQCNSTAQTEKVSVIQDFVKMCLEANIPLEKADHPAVRAFLSRHVKNGGSIPKSDQLRRAYLPDGYENENQLLNSQDC", "partner": "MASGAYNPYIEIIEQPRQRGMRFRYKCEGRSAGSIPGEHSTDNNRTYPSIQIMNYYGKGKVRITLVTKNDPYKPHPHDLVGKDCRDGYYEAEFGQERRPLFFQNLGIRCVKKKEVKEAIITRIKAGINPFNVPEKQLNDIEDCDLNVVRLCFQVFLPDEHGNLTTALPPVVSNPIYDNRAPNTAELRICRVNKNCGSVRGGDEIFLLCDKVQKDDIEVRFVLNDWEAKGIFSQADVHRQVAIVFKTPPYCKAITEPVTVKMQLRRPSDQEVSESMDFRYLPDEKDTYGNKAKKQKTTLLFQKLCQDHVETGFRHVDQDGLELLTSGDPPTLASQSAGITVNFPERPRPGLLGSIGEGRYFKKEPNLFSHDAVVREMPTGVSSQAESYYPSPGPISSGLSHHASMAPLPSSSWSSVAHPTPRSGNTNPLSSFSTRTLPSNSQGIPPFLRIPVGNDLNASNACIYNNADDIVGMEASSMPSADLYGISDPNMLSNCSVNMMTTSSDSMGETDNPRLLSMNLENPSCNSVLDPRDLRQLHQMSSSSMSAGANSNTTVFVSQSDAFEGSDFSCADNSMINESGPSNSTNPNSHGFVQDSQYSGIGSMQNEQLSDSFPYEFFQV"}, "B3": {"name": "Coiled-coil alpha-helical rod protein 1 (Homo sapiens), Q8TD31 (parent)", "chain": "MFPPSGSTGLIPPSHFQARPLSTLPRMAPTWLSDIPLVQPPGHQDVSERRLDTQRPQVTMWERDVSSDRQEPGRRGRSWGLEGSQALSQQAEVIVRQLQELRRLEEEVRLLRETSLQQKMRLEAQAMELEALARAEKAGRAEAEGLRAALAGAEVVRKNLEEGSQRELEEVQRLHQEQLSSLTQAHEEALSSLTSKAEGLEKSLSSLETRRAGEAKELAEAQREAELLRKQLSKTQEDLEAQVTLVENLRKYVGEQVPSEVHSQTWELERQKLLETMQHLQEDRDSLHATAELLQVRVQSLTHILALQEEELTRKVQPSDSLEPEFTRKCQSLLNRWREKVFALMVQLKAQELEHSDSVKQLKGQVASLQEKVTSQSQEQAILQRSLQDKAAEVEVERMGAKGLQLELSRAQEARRRWQQQTASAEEQLRLVVNAVSSSQIWLETTMAKVEGAAAQLPSLNNRLSYAVRKVHTIRGLIARKLALAQLRQESCPLPPPVTDVSLELQQLREERNRLDAELQLSARLIQQEVGRAREQGEAERQQLSKVAQQLEQELQQTQESLASLGLQLEVARQGQQESTEEAASLRQELTQQQELYGQALQEKVAEVETRLREQLSDTERRLNEARREHAKAVVSLRQIQRRAAQEKERSQELRRLQEEARKEEGQRLARRLQELERDKNLMLATLQQEGLLSRYKQQRLLTVLPSLLDKKKSVVSSPRPPECSASAPVAAAVPTRESIKGSLSVLLDDLQDLSEAISKEEAVCQGDNLDRCSSSNPQMSS", "partner": "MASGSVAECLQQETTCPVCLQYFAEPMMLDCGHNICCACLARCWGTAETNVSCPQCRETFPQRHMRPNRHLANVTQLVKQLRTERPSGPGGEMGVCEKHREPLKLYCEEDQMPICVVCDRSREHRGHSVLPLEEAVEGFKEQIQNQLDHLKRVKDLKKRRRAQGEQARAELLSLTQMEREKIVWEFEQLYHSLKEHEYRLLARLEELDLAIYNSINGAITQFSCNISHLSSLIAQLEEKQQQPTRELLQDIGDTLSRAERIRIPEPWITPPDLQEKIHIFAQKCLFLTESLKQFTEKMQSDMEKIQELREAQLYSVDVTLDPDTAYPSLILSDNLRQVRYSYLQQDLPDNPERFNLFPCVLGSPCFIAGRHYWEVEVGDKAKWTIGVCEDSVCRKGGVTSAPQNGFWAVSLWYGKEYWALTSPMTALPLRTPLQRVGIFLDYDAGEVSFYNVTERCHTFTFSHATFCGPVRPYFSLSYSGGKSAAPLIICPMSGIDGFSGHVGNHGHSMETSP"}, "B4": {"name": "Coiled-coil alpha-helical rod protein 1 (Homo sapiens), Q8TD31 (parent)", "chain": "B3 chain", "partner": "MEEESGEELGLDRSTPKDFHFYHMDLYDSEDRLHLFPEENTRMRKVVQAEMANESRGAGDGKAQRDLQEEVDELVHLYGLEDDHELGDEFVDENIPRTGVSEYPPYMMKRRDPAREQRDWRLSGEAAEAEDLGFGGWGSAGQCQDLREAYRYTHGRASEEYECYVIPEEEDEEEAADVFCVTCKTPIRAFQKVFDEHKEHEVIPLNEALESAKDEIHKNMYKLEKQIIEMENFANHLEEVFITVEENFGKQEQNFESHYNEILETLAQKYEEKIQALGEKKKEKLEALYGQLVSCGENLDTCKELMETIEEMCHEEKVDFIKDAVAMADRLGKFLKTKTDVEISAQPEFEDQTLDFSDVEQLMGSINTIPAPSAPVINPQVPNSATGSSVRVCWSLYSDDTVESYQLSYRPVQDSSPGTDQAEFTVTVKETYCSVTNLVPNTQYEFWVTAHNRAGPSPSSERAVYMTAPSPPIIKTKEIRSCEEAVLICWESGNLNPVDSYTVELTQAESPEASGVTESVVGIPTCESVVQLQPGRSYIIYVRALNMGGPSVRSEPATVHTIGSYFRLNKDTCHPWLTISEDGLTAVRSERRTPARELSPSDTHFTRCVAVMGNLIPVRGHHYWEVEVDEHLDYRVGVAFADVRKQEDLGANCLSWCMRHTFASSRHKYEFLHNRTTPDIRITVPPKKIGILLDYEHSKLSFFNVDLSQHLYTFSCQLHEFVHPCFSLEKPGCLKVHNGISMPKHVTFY"}},
  "data": [
    {"variants_of": "B1", "conditions": "with homez_human HOMEZ", "values": [
      {"variant": "E295K", "effect of a mutation on the interaction": "disrupting interaction strength"}
    ]},
    {"variants_of": "B2", "conditions": "with rel_human REL", "values": [
      {"variant": "R54C", "effect of a mutation on the interaction": "disrupting interaction strength"}
    ]},
    {"variants_of": "B3", "conditions": "with tri27_human TRIM27, P14373", "values": [
      {"variant": "W337R", "effect of a mutation on the interaction": "disrupting interaction strength"}
    ]},
    {"variants_of": "B4", "conditions": "with fsd2_human FSD2, A1L4K1", "values": [
      {"variant": "W337R", "effect of a mutation on the interaction": "with no effect"}
    ]}
  ]
}
